{"source": "IntAct's records for PubMed 9845372", "parents": {"B1": {"name": "Double-strand break repair protein MRE11 (Saccharomyces cerevisiae), P32829 (parent)", "chain": "MDYPDPDTIRILITTDNHVGYNENDPITGDDSWKTFHEVMMLAKNNNVDMVVQSGDLFHVNKPSKKSLYQVLKTLRLCCMGDKPCELELLSDPSQVFHYDEFTNVNYEDPNFNISIPVFGISGNHDDASGDSLLCPMDILHATGLINHFGKVIESDKIKVVPLLFQKGSTKLALYGLAAVRDERLFRTFKDGGVTFEVPTMREGEWFNLMCVHQNHTGHTNTAFLPEQFLPDFLDMVIWGHEHECIPNLVHNPIKNFDVLQPGSSVATSLCEAEAQPKYVFILDIKYGEAPKMTPIPLETIRTFKMKSISLQDVPHLRPHDKDATSKYLIEQVEEMIRDANEETKQKLADDGEGDMVAELPKPLIRLRVDYSAPSNTQSPIDYQVENPRRFSNRFVGRVANGNNVVQFYKKRSPVTRSKKSGINGTSISDRDVEKLFSESGGELEVQTLVNDLLNKMQLSLLPEVGLNEAVKKFVDKDEKTALKEFISHEISNEVGILSTNEEFLRTDDAEEMKALIKQVKRANSVRPTPPKENDETNFAFNGNGLDSFRSSNREVRTGSPDITQSHVDNESRITHISQAESSKPTSKPKRVRTATKKKIPAFSDSTVISDAENELGDNNDAQDDVDIDENDIIMVSTDEEDASYGLLNGRKTKTKTRPAASTKTASRRGKGRASRTPKTDILGSLLAKKRK", "partner": "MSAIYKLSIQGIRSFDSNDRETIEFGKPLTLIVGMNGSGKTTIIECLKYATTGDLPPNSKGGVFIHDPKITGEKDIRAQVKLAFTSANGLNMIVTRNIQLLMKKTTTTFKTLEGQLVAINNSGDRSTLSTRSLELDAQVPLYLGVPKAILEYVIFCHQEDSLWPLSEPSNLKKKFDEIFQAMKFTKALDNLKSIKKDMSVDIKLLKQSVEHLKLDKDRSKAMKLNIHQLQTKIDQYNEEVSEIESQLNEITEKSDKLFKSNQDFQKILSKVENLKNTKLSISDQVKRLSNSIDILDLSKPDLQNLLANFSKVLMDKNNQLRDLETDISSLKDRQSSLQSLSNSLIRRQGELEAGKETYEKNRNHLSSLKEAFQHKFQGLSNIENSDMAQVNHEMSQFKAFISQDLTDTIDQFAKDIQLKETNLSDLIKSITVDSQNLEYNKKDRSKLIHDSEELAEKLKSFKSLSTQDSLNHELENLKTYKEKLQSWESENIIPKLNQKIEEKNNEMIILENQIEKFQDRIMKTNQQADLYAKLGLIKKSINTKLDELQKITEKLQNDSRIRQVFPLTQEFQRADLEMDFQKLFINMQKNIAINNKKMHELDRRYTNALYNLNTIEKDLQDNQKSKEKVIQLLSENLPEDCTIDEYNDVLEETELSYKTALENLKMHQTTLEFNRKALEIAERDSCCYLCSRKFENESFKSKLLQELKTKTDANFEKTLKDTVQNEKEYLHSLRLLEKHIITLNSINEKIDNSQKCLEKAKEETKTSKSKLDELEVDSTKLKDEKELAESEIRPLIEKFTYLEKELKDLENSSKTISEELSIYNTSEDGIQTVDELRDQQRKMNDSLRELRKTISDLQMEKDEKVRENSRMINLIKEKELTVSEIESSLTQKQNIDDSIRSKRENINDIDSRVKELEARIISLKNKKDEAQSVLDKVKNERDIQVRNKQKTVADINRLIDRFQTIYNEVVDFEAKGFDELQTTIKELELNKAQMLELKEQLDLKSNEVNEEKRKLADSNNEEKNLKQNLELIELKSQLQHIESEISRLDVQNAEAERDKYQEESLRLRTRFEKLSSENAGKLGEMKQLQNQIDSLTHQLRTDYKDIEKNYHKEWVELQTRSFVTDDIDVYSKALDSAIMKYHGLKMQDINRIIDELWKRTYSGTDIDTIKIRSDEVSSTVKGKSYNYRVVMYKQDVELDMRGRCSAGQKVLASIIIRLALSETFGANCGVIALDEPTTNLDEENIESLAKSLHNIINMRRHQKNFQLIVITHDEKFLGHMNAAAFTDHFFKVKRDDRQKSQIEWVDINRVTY"}}, "data": [{"variants_of": "B1", "conditions": "with rad50_yeast RAD50, P12753", "values": [{"variant": "H213Y;L225I", "effect of a mutation on the interaction": "disrupting interaction"}]}]}
